Km, kcat and kcat/Km data for four proteins are collected here from paper PMC7037157, “Parallel Strategy Increases the Thermostability and Activity of Glutamate Decarboxylase” (Molecules, 2020).

Residue numbers refer to the chain shown, from its start. Numbers in names are those of the source.

First the molecules themselves.
B1: GAD (glutamate decarboxylase; GAD1407) (Levilactobacillus brevis; N193D) (protein)
chain: MAMLYGKHTHETDETLKPIFGASAERHDLPKYKLAKHALEPREADRLVRDQLLDEGNSRLNLATFCQTYMEPEAVELMKDTLEKNAIDKSEYPRTAEIENRCVNIIANLWHAPEAESFTGTSTIGSSEACMLAGLAMKFAWRKRAKANGLDLTAHQPNIVISAGYQVCWEKFCVYWDIDMHVVPMDDDHMSLDVDHVLDYVDDYTIGIVGIMGITYTGQYDDLARLDAVVERYNRTTKFPVYIHVDAASGGFYTPFIEPELKWDFRLNNVISINASGHKYGLVYPGVGWVIWRDQQYLPKELVFKVSYLGGELPTMAINFSHSASQLIGQYYNFIRFGFDGYREIQEKTHDVARYLAKSLTKLGGFSLINDGHELPLICYELTADSDREWTLYDLSDRLLMKGWQVPTYPLPKNMTDRVIQRIVVRADFGMSMAHDFIDDLTQAIHDLDQAHIVFHSDPQPKKYGFTH
notes: pET28a(+)-GAD1407, expressed in E. coli BL21(DE3), Ni-NTA purified (His tag)
B2: GAD (glutamate decarboxylase; GAD1407) (Levilactobacillus brevis) (protein)
chain: B1 chain with D193N
notes: as for B1
B3: GAD (glutamate decarboxylase; GAD1407) (Levilactobacillus brevis; S325A) (protein)
chain: B1 chain with D193N, S325A
notes: as for B1
B4: GAD (glutamate decarboxylase; GAD1407) (Levilactobacillus brevis; D203E) (protein)
chain: B1 chain with D193N, D203E
notes: as for B1

Substrate in this data set: N[C@@H](CCC(=O)O)C(=O)O
As to the kind of experiment: initial rates; GABA dansylated, HPLC. Conditions: 0.2 mol/L HAc-NaAc buffer, pH 4.8, 10-100 mmol/L L-glutamate, standard assay 48 °C, 40 μmol/L PLP. It is filed as biochemical, Levilactobacillus brevis. The text has this:
initial rates; GABA dansylated, HPLC on GAD (glutamate decarboxylase; GAD1407)
For B1, the Km is 34.35 mM, the kcat came to 138 s⁻¹ and the kcat/Km is 4000 M⁻¹ s⁻¹.

Turning to B2, the Km worked out at 39.72 mM, the kcat worked out at 102 s⁻¹ and the kcat/Km is 2570 M⁻¹ s⁻¹.

As for B3, the Km is given as 42.39 mM, the kcat turned out to be 176 s⁻¹ and the kcat/Km came out at 4160 M⁻¹ s⁻¹.

Consider B4, for which the Km amounted to 26.60 mM, the kcat was 40.2 s⁻¹ and the kcat/Km came out at 1510 M⁻¹ s⁻¹.
